{
  "source": "patent US20060116325A1",
  "about": "“Methods and compositions for inhibiting hiv-coreceptor interactions” (priority 2001, published 2006)",
  "tested_on": "HIV-1JRFL",
  "test": "HIV-1JRFL infection of monocyte-derived macrophages, p24 ELISA",
  "assay_type": "cell-based",
  "conditions": "peptide 1 hr before virus, p24 after 72 hr; FIG. 3",
  "method": "Monocyte-derived macrophages were treated with the designated concentrations of the indicated peptide for a period of 1 hr prior to addition of HIV-1JRFL. After 2 hr, cells were washed, and viral replication was determined after 72 hr by p24 analysis. Results are representative of 4 independent experiments.\nPBMCs were obtained from whole blood of normal donors and isolated by Ficoll-Paque Plus (Pharmacia Biotech, Piscataway, N.J.) density gradient centrifugation, and plated at a cell density of 2×10^6 cells/ml. Monocyte-derived macrophages (MDM) were generated from adherent human peripheral blood mononuclear cells by culture for 7 days with M-CSF (100 ng/ml). […] After 2 hr, cells were washed, and cultured for additional 48-72 hr, followed by analysis of HIV replication as determined by quantification of accumulated p24 in the supernatant. The production of p24 was determined by conventional sandwich ELISA, using ELISA plates pre-coated with capture anti-p24 antibodies provided by the AIDS Vaccine Program (SAIC Frederick, NCI-FCRDC, Frederick, Md.). The captured p24 antigen was detected using rabbit anti-HIV-1 anti-p24 antibody, and a secondary goat anti-rabbit IgG (peroxidase-labeled) antibody. The captured p24 protein was detected using a 3,3′,5,5′-tetramethylbenzidine and hydrogen peroxide detection system (KPL Laboratories, Gaithersburg, Md.). […]",
  "data": [
    {"molecule": "macrophage inflammatory protein-1β (protein) APMGSDPPTACCFSYTARKLPRNFVVDYYETSSLCSQPAVVFQTKRSKQVCADPSESWVQEYVYDLELN", "values": [
      {"measurement": "inhibition of HIV-1JRFL infection of monocyte-derived macrophages (p24)", "result": "comparable inhibitory activities"}
    ]}
  ]
}
